Measured values taken from PMC4838387, “PolDIP2 interacts with human PrimPol and enhances its DNA polymerase activities”.

Target: T1, PrimPol24-354 (AEP catalytic domain);PolDIP2 (untagged) (human;human?, UniProt Q96LW4;Q9Y2S7 24-354;1-368, |)
T1 sequence 1: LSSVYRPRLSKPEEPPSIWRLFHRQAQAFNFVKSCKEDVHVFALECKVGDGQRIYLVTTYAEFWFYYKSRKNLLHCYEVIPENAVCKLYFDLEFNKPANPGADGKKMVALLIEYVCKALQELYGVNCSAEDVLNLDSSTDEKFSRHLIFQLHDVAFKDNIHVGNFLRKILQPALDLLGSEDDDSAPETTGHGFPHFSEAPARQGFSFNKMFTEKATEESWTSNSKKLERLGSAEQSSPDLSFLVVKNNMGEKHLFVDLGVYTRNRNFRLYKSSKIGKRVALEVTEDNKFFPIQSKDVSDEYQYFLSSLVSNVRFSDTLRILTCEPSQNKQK
T1 sequence 2: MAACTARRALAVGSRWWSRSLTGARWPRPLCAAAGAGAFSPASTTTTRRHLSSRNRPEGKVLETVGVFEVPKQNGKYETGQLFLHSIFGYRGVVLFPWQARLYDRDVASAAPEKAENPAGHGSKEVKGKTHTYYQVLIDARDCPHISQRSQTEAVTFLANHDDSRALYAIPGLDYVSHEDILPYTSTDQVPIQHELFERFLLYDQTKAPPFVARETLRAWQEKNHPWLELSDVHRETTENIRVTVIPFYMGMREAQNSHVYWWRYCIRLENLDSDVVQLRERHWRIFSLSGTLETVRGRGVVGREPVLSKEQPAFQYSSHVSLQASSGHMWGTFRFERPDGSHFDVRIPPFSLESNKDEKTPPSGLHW
Assay: EMSA; PolDIP2 50-250 nM with PrimPol; more DNA bound than by PrimPol alone, super-shifted complex; 10 mM Mg2+; EMSA: 10 mM Bis-Tris-propane-HCl pH 7.0, 10 mM MgCl2, 100 uM DTT, 20 nM DNA; 5% native PAGE, 0.5x TBE; binding temperature not stated
Settings: protein: recombinant;recombinant; tags: ;none (GST cleaved with PreScission protease); copies: 1;1; label: 5'-HEX on primer; 3'-biotin on template; 20 bp duplex; template 5' overhang 77 nt

B1: 20/97-mer primer/template (HP-20 / ND-97) (mixed)
DNA 1: TGTCGTCTGTTCGGTCGTTC
DNA 2: ACCGCGAACTTGAATTCTAGTTCAGTCTAAATGCTCTCAAGCACTGAGCAATTCACAACATATGGCTTTCGATTACCGAACGACCGAACAGACGACA
binding result: binds
